The labels stand for the following.
T1: human RXFP1 receptor (human, UniProt Q9HBX9 1-757)
T1 sequence: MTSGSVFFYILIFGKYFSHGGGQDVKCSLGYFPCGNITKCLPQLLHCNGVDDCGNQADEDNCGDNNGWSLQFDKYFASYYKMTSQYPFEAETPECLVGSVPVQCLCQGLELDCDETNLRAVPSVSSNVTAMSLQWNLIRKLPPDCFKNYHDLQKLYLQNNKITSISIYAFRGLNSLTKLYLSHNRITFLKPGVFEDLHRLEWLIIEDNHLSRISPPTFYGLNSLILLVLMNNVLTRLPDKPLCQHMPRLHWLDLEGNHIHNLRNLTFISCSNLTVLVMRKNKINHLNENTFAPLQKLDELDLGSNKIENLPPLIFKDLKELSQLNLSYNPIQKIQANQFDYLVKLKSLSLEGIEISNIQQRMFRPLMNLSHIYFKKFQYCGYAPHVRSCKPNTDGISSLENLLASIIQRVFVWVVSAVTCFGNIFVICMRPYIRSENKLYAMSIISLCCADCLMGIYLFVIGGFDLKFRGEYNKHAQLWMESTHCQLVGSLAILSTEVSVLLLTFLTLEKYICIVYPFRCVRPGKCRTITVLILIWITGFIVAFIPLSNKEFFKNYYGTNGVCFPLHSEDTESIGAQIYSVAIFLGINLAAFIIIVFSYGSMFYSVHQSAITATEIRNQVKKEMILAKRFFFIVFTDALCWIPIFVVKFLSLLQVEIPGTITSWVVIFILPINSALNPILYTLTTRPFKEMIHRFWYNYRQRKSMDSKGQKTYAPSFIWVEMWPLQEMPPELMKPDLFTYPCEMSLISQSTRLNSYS

B1: RLN Analog 9 (other)
chain: SWMEEVIKLCGRELVRAQIAICGMSTWSGGGSGGSGGGQLYSALANKCCHVGCTKRSLARFCGGGGQGGGGQGGGGQGGGGQGGGGQEVQLLESGGGLVQPGGSLRLSCAASGRYIDETAVAWFRQAPGKGREFVAGIGGGVDITYYADSVKGRFTISRDNSKNTLYLQMNSLRPEDTAVYYCAARPGRPLITSKVADLYPYWGQGTLVTVSSPP
notes: Single-chain fusion: RLN2 B chain (desB1) - L2 - RLN2 A chain - (G4Q)5 L1 - VHH (C-terminal)
B2: RLN Analog 6 (other)
chain: SWMEEVIKLCGRELVRAQIAICGMSTWSGGGSGGSGGGQLYSALANKCCHVGCTKRSLARFCPGPQPGPQPGPQPGPQPGPQPGPQPGPQPGPQEVQLLESGGGLVQPGGSLRLSCAASGRYIDETAVAWFRQAPGKEREFVAGIGGGVDITYYADSVKGRFTISRDNSKNTLYLQMNSLRPEDTAVYYCAARPGRPLITSKVADLYPYWGQGTLVTVSSPP
notes: Single-chain fusion: RLN2 B chain (desB1) - L2 - RLN2 A chain - PGPQ-repeat L1 - VHH (C-terminal)
B3: RLN Analog 10 (other)
chain: B2 chain with E138G
notes: Single-chain fusion: RLN2 B chain (desB1) - L2 - RLN2 A chain - (PGPQ)8 L1 - VHH (C-terminal)
B4: RLN Analog 13 (other)
chain: EVQLLESGGGLVQPGGSLRLSCAASGRYIDETAVAWFRQAPGKGREFVAGIGGGVDITYYADSVKGRFTISRDNSKNTLYLQMNSLRPEDTAVYYCAARPGRPLITSKVADLYPYWGQGTLVTVSSGGGGQGGGGQGGGGQGGGGQGGGGQALANKCCHVGCTKRSLARFCGGGSGGSGGGSWMEEVIKLCGRELVRAQIAICGMSTWS
notes: Single-chain fusion: VHH - (G4Q)5 L1 - RLN2 A chain (desA1-4) - L2 - RLN2 B chain (desB1)

Changes are numbered by the printed parent chain. Names and notes keep the numbering of the source.

One assay concerns the target T1, human RXFP1 receptor. The assay can be described thus: cell-based or functional assay.
With B1, the “hRXFP1 EC50 nM GeoMean (cAMP CRE luciferase reporter assay, CHO cells expressing human RXFP1)” value (“hRXFP1 EC50 nM GeoMean” for short) turned out to be 5.2 nM.

On to B2, for which the “hRXFP1 EC50 nM GeoMean” value was determined as 15 nM.

For B3, the “hRXFP1 EC50 nM GeoMean” value was 14 nM.

Another assay concerns the target human RXFP2 receptor (human, UniProt Q8WXD0 1-754). Nature of the assay: cell-based or functional assay.
Consider B1, for which the “hRXFP2 EC50 nM GeoMean (cAMP CRE luciferase reporter assay, CHO cells expressing human RXFP2)” value (“hRXFP2 EC50 nM GeoMean” for short) came out at 97 nM.

Turning to B2, the “hRXFP2 EC50 nM GeoMean” value worked out at 39 nM.

On to B3, for which the “hRXFP2 EC50 nM GeoMean” value was 32 nM.

For another assay, the target named is T2, pig serum albumin (pig, UniProt P08835 25-607).
T2 construct: Bought protein, immobilized on a CM5 chip by amine coupling; also called Pig SA
The assay can be described thus: SPR (Biacore 8K), albumin immobilized on CM5 chip, 25 C, 1:1 kinetic fit. As for the experimental part: (§1) The immobilization of the serum albumin to a Series S Sensor Chip CM5 surface is performed according to the manufacturer's instructions (Amine Coupling Kit BR-1000-50). Briefly, carboxyl groups on the sensor chip surfaces (flow cell 1 and 2) are activated by injecting 70 μL of a mixture containing 75 mg/mL EDC and 11.5 mg/mL NHS at 10 μL/min. Human, cynomolgus monkey, mouse, rat, pig, dog, cow and rabbit serum albumin are diluted in 10 mM sodium acetate pH 4.0 (BR-1003-49) at […] and then injected over the activated chip surfaces (flow cell 2, channel 1 to 8) at 10 μL/min for 180 sec (human, mouse, rat, pig and cow serum albumin are obtained from Sigma Aldrich (St. Louis, MO); cynomolgus monkey serum albumin is obtained from Hölzel Diagnostika (Cologne, Germany); dog serum albumin is obtained from Molecular Innovations (Novi, MI); and rabbit serum albumin is obtained from Fitzgerald Industries Intl. (Acton, MA). The various serum albumins are covalently immobilized through free amines onto a carboxymethyl dextran-coated sensor chip CM5 targeting a surface density of about 100 (62-145) RU. Excess reactive groups on the surfaces (flow cell 1 and 2) are deactivated by injecting 70 μL of 1 M ETA HCl—NaOH pH 8.5.
(§2) 150 μl of sample is individually injecting sequentially across the immobilized serum albumins on the chip's surface and dissociating for 600 sec at 50 μL/min flow rate at 25° C. The surface is regenerated by injecting 10 mM glycine-HCl pH 1.5 (BR-1003-54) at 50 μL/min for 100 sec. The resulting sensorgrams are analyzed using Biacore 8K Insight Evaluation Software (version 2.0.15.12933) 1:1 binding kinetics model fitting to calculate the binding kinetic parameter association rate (ka), dissociation rate (kd), and equilibrium dissociation constant (KD).
As to B1, binding was put at a Kd of 14 nM; the koff (commonly a measure of how fast the partners let go of each other) turned out to be 0.012 s⁻¹; the kon (in general, the rate constant with which the complex forms) turned out to be 870000 M⁻¹ s⁻¹.

Regarding B4, the Kd (as a rule, a measure of binding affinity in units of concentration) stood at 5 nM; the koff was found to be 0.006 s⁻¹; the kon amounted to 1.2e+06 M⁻¹ s⁻¹.

Turning to B2, the Kd turned out to be 24 nM, the off-rate constant (koff) turned out to be 0.0099 s⁻¹ and the on-rate constant (kon) was 410000 M⁻¹ s⁻¹.

Molecule B3 came in with a Kd of 20 nM, a koff of 0.0096 s⁻¹ and a kon of 490000 M⁻¹ s⁻¹.

The target in another assay is T3, dog serum albumin (dog, UniProt P49822 25-608).
T3 construct: Bought protein, immobilized on a CM5 chip by amine coupling; also called Dog SA
Described as above. Here is the method:
as §1, §2
Turning to B1, the Kd came out at 3.8 nM, the koff is 0.0036 s⁻¹ and the kon is 950000 M⁻¹ s⁻¹.

As to B4, the Kd came out at 0.92 nM, the off-rate (koff) was determined as 0.0017 s⁻¹ and the kon was 1.9e+06 M⁻¹ s⁻¹.

The molecule B2 had a Kd of 4.1 nM, a koff of 0.002 s⁻¹ and a kon of 480000 M⁻¹ s⁻¹.

Take B3: binding was put at a Kd of 3.4 nM, the koff was 0.0021 s⁻¹ and the kon is 630000 M⁻¹ s⁻¹.

The next assay has as its target T4, rat serum albumin (rat, UniProt P02770 25-608).
T4 construct: Bought protein, immobilized on a CM5 chip by amine coupling; also called Rat SA
Described as above. Here is the method: as §1, §2
B1: the Kd worked out at 8.2 nM, the koff was 0.0075 s⁻¹ and the kon was 910000 M⁻¹ s⁻¹.

B4 yielded an equilibrium dissociation constant (Kd) of 2 nM, a koff of 0.0033 s⁻¹ and a kon of 1.7e+06 M⁻¹ s⁻¹.

In turn, B2 had a Kd of 9.7 nM, a koff of 0.0048 s⁻¹ and a kon of 490000 M⁻¹ s⁻¹.

Regarding B3, the Kd was determined as 7.8 nM, the koff amounted to 0.0049 s⁻¹ and the kon stood at 630000 M⁻¹ s⁻¹.

The target of the next assay is T5, cynomolgus monkey serum albumin (cynomolgus monkey, UniProt A2V9Z4 25-608).
T5 construct: Bought protein, immobilized on a CM5 chip by amine coupling; also called Cyno SA
The assay is described as above. Here is the method:
as §1, §2
Regarding B1, the Kd was 0.86 nM, the koff turned out to be 0.00094 s⁻¹ and the kon stood at 1.1e+06 M⁻¹ s⁻¹.

In turn, B4 had a Kd of 0.49 nM, a koff of 0.0007 s⁻¹ and a kon of 1.4e+06 M⁻¹ s⁻¹.

As for B2, the Kd is 2.3 nM, the koff is 0.001 s⁻¹ and the on-rate constant (kon) amounted to 430000 M⁻¹ s⁻¹.

As for B3, the Kd worked out at 1.5 nM, the koff is 0.00077 s⁻¹ and the kon is 510000 M⁻¹ s⁻¹.

A further assay addresses T6, human serum albumin (human, UniProt P02768 25-609).
T6 construct: Bought protein, immobilized on a CM5 chip by amine coupling; also called Human SA
The assay is described as above. Here is the method:
as §1, §2
Take B1: the affinity, expressed as Kd, was 0.19 nM; the koff came to 0.00018 s⁻¹; the kon was 950000 M⁻¹ s⁻¹.

As to B4, binding was characterised by a dissociation constant (Kd) of 0.14 nM, the dissociation rate constant (koff) came out at 0.00019 s⁻¹ and the association rate constant (kon) amounted to 1.4e+06 M⁻¹ s⁻¹.

For the molecule B2, the Kd stood at 0.51 nM, the koff was determined as 0.00024 s⁻¹ and the kon came to 470000 M⁻¹ s⁻¹.

Molecule B3 displayed a Kd of 0.37 nM, a koff of 0.0002 s⁻¹ and a kon of 550000 M⁻¹ s⁻¹.

Another assay concerns the target T7, mouse serum albumin (mouse, UniProt P07724 25-608).
T7 construct: Bought protein, immobilized on a CM5 chip by amine coupling; also called Mouse SA
The description is as above. As for the experimental part: as §1, §2
On to B1, for which the Kd stood at 9.5 nM, the dissociation rate constant (koff) is 0.011 s⁻¹ and the kon is 1.2e+06 M⁻¹ s⁻¹.

Molecule B4 registered a Kd of 2.6 nM, a koff of 0.0048 s⁻¹ and a kon of 1.8e+06 M⁻¹ s⁻¹.

B2 registered a Kd of 12 nM, an off-rate constant (koff) of 0.0076 s⁻¹ and a kon of 630000 M⁻¹ s⁻¹.

With B3, the affinity, expressed as Kd, was 9.7 nM; the off-rate (koff) was 0.0072 s⁻¹; the kon is 740000 M⁻¹ s⁻¹.

A further assay addresses T8, cow serum albumin (cow, UniProt P02769 25-607).
T8 construct: Bought protein, immobilized on a CM5 chip by amine coupling; also called Cow SA
Nature of the assay: SPR (Biacore 8K), albumin immobilized on CM5 chip, 25 C, steady state. As for the experimental part:
as §1
150 μl of sample is individually injecting sequentially across the immobilized serum albumins on the chip's surface and dissociating for 600 sec at 50 μL/min flow rate at 25° C. The surface is regenerated by injecting 10 mM glycine-HCl pH 1.5 (BR-1003-54) at 50 μL/min for 100 sec. The resulting sensorgrams are analyzed using Biacore 8K Insight Evaluation Software ([…]).
(In general: SPR reads the build-up and loss of mass on a sensor chip optically.)
As to B1, the Kd is 84 nM.

The molecule B2 had a Kd of 130 nM.

With B3, the Kd stood at 100 nM.

Another assay deals with T8, cow serum albumin. The description is as above. This is another data set of the same source.
In turn, B4 came in with a Kd of 29 nM.

The target in the next assay is T9, rabbit serum albumin (rabbit, UniProt P49065 25-608).
T9 construct: Bought protein, immobilized on a CM5 chip by amine coupling; also called Rabbit SA
The assay can be described thus: SPR (Biacore 8K), albumin immobilized on CM5 chip, 25 C. Here is the method:
as §1, §2
With B1, the binding result is “no binding (tested: 1000 nM (highest concentration tested))”.

As to B4, the binding result is listed as “no binding (tested: 1000 nM (highest concentration tested))”.

B2: the binding result was “no binding (tested: 1000 nM (highest concentration tested))”.

In the case of B3, the binding result was “no binding (tested: 1000 nM (highest concentration tested))”.

The record behind these values is US20260125446A1 (Eli Lilly, published 2026).
